In EP4644419A1 (Hangzhou Zhongmeihuadong Pharmaceutical Co., Ltd., dated 2025):
Substitutions are numbered along the chain they refer to. Values joined by “and” are separate entries in the source; they are usually repeats but may differ in a detail not shown here. Equal entries are not always repeated.

T1: human CD112R antigen protein huCD112R-His (Acro Biosysterm, PVG-H52H4) (human, UniProt Q6DKI7 41-171)
T1 construct: purchased; also called human antigen protein; not shown: His tag
T1 sequence (looked up): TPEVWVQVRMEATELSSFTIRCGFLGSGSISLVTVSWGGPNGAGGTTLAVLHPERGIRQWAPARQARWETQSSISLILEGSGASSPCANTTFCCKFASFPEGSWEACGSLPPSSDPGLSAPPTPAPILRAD

T2: monkey antigen protein (monkey CD112R, Uniprot ID: A0A2K5WVV8) (monkey, UniProt A0A2K5WVV8 41-171)
T2 sequence: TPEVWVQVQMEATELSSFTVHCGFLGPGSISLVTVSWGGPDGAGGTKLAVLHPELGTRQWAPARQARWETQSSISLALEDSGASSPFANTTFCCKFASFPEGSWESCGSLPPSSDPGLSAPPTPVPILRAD

T3: human CD112R on GS-J2C/CD112R effector cells (human, UniProt Q6DKI7 1-326)
T3 sequence (looked up): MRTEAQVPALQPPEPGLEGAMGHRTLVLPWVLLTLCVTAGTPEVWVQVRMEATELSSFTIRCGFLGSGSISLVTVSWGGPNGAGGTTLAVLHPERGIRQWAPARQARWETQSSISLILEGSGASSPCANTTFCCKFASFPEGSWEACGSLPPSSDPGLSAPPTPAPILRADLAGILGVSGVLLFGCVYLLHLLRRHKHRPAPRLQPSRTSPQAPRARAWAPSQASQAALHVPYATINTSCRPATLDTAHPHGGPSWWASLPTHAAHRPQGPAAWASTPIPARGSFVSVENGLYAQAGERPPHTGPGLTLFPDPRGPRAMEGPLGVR

B1: C152 (antibody, human IgG1, kappa, V domains shown)
VH: QVQLQQSGTILARPGASVKMSCRASDYTFTDYWIQWIKQRPGQGLEWIGAIFPENGDTRYTQKFKGRATLTADKSSSTAYMQVNSLTSEDSAVYYCATFINYVDYWGQGTTLTVSS
VL: QIVLIQSPAIMSASPGEKVTMTCSASSSVNNIHWYQQKSGTSPKRWIYDTTKLTSGVPARFSGSGSGTSYSLTISSMEAEDAATYYCQQWNINPYTFGGGTKLEIKR
B2: C132 (antibody, human IgG1, kappa, V domains shown)
VH: QVQLQQSGAELMKPGSSVNLSCKATDYTFTDYWINWVKQRPGHGLEWIGEILPGSVTTNYNEKFRGKATFTADTSSNTAYMQLSSLTSEDSAVYFCARGSDYSYYAMDYWGQGTSVTVSS
VL: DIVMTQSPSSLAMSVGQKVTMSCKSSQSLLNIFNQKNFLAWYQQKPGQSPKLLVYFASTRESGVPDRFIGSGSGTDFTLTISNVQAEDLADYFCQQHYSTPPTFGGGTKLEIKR
B3: C129 (antibody, human IgG1, kappa, V domains shown)
VH: QVQLQQSGAELMTPGSSVKLSCKATGYTFTDYWIEWVKKRPGHGLEWIGEILPGYISTNYNEKFKDKATFTADTSSNTTYMQLSSLTSEDSAVYYCVLIVTTYYYFMDYWGQGTSVTVSS
VL: QIVLTQSPAIMSASPGEKVTITCSASSSVTYMHWFQQKPGTSPKLWIYSTSNLASGVPVRFSGSGSGTSYSLTISRMEAEDAATYYCQQRSSYPWTFGGGTKLEIKR
B4: C105 (antibody, human IgG1, kappa, V domains shown)
VH: EVQLQQSGPELVKPGSSMKISCKASGYTFTDYSMDWVKQSHGKSLEWIGAINPNNGGTSYNQKFKDKATLTVDRSSSTAYMELRSLTSEDSAVYYCARWDSDYWYFDVWATGTTVTVSS
VL: DIVMTQSQKFMSTSVGDRVSITCKASQNVRTAVDWYQQKPGQSPKALIYSASNRHTGVPDRFTGSGSGTDFTLTISNVQSEDLADYFCLQHWNYPYTFGGGTKLEIKR
B5: C64 (antibody, human IgG1, kappa, V domains shown)
VH: EVMLVESGGDLVKPGGSLKLSCAASGFTFSSYFMSWVRQTPEKRLEWVATISGGGDKTYYLDILKGRFTISRDNAKNTLYLQMSSLRSEDTALYYCARHEDYAWYAMDYWGQGTSVTVSS
VL: QIVLTQSPAIMSASPGEKVTMTCSASSSVNYIYWYQQKPGSSPRLLIYDTSNLASGVPVRFSGSGSGTSYSLTISRMEAEDAATYYCQQWSSYPLTFGAGTKLELKR
B6: C138 (antibody, human IgG1, kappa, V domains shown)
VH: EVQLVESGGGLVKPGGSLKLSCAASGFTFSSYAMSWVRQTPAKRLEWVATITSGDIRTYYPDTVKGRFTISRDNAKNTLYLQMRSLRSEDTAMYYCVGHDDFHFYAMDYWGQGTSVTVSS
VL: B5 VL with N30S, I32L, I74L
B7: C71 (antibody, human IgG1, kappa, V domains shown)
VH: B5 VH with M3I, D10G, L18R, K57N, L61P, I63S, L64V, A103E
VL: B5 VL with A13T, N30S, S91T
B8: C124 (antibody, human IgG1, kappa, V domains shown)
VH: EVQLVESGGGLVKPGGSLKLSCAASGFTFSSFAMSWVRQTPAKRLESVATINNGGINTYYPDTVKGRFTVSRDNAKNTLYLQMSSLRSEDTAMYYCARHDDFLYYAMDYWGQGTSVTVSS
VL: B5 VL with N30S, I32M, S91T
B9: C57 (antibody, human IgG1, kappa, V domains shown)
VH: EVQLQQSGPVLVKPGASVKMSCKASGYIFTDYYMHWVKQSHGKSLEWIGIINPYNGDTSYNQKFKDKATLTVDKSSSTAYMELNSLTSEDSAVYYCARDSSNVGNAMDYWGQGTSVTVSS
VL: DIQMTQTTSSLSASLGDRVTISCRASQDISNYLNWYLQKPDGTIKLLIYYSSRLHSGVPSRFSGSGSGTDYSLTISNLEQEDIATYFCQQGYTLPRTFGGGTKLEIIR
B10: C155 (antibody, human IgG1, kappa, V domains shown)
VH: EVQLVESGGGLVKPGGSLRLSCAASGFTFSDYYMYWVRQAPGKGLEWVATISDAGGYTYYPDSVKGRFTISRDNAKNSLYLQMNSLRAEDTAVYYCGREDLWGQGTLVTVSS
VL: DIQMTQSPSSLSASVGDRVTITCRASQDIGYSLNWFQQKPGKAPRRLIYATSRLDSGVPKRFSGSGSGTDFTLTISSLQPEDFATYYCLQYASFPYTFGGGTKLEIKR
B11: C154 (antibody, human IgG1, kappa, V domains shown)
VH: B10 VH with A49S, G97A
VL: B10 VL with R45K
B12: C156 (antibody, human IgG1, kappa, V domains shown)
VH: B10 VH with Y95F
VL: B10 VL with R45K
B13: C114 (antibody, human IgG1, kappa, V domains shown)
VH: QVQLQQSGAELVRPGTSVKMSCKAAGYTFTNSWINWVKQRPGHGLEWIGDIYPGNTFPNYNEKFKGKATLTADTSSSTAYMQLSSLTSEDSAVYYCTGGYFDVWGTGTTVTVSS
VL: DIVMTQSPSSLSVSAGEKVTMSCKSSQSLLNSGNQKNFLAWYQQKPGQPPKLLIFGASTRQSGVPDRFTGSGSGTDFTLTISSVQAEDLAVYYCQNDHSYPYTFGGGTKLEMKR
B14: C67 (antibody, human IgG1, kappa, V domains shown)
VH: EAQLQQSGPELVKPGASVKISCKASGYTFTDYYMNWVKQSHGKSLDWIGDINPDNGGSTYNQKFKGKATLTVDKSSSTAYMELRSLTSEDSAVYYCSASGPPYVLLDYWGQGTSVIVSS
VL: DIQMTQSPASLSASVGETVTITCQTSENIYSYLAWYQQKQGKSPQLLVYNTQTLAEGVPSRFSGSRSGAQFSLKINSLQPEDFGSYYCQHHYGVPLTFGAGTKLELKR
B15: C55 (antibody, human IgG1, kappa, V domains shown)
VH: EVQLQQSGPELVKPGASVKISCKASGYTFTDYYMSWVKQSHGKSLEWIGDVNPNNGDTSYNQKFKGKATLTVDKSSSTAYMELRSLTSEDSAVYYCAASGLPYVLMDYWGQGTSVTVSS
VL: B14 VL with Q24R, T25A, Y30N, Q52K, A55T, G57D, R66G, A69T, V94T, A100G

Molecular target: T1, human CD112R antigen protein …
Assay: SPR (Biacore X100), antibody captured on Protein A chip, huCD112R-His as analyte, 1:1 Langmuir

Row | Kd | Binder
1 | 274 pM | B1
2 | 156 pM | B2
3 | 375 pM | B3
4 | 716 pM | B4
5 | 800 pM | B5
6 | 550 pM | B6
7 | 158 pM | B7
8 | 243 pM | B8
9 | 130 pM and 219 pM | B9
10 | 603 pM | B10
11 | 724 pM | B11
12 | 946 pM | B12
13 | 35.6 pM | B13
14 | 20 pM | B14
15 | 506 pM and 334 pM | B15

Molecular target: T1, human CD112R antigen protein …
Assay: ELISA, huCD112R-His coated on plate

Row | EC50 [pM] | Binder
16 | 82 | B1
17 | 38 | B2
18 | 34 | B3
19 | 21 | B4
20 | 34 | B5
21 | 39 | B6
22 | 37 | B7
23 | 33 | B8
24 | 34 | B9
25 | 42 | B13
26 | 60 | B14
27 | 56 | B15

Molecular target: T2, monkey antigen protein (monkey CD112R, …)
Assay: ELISA, monkey antigen protein (as Example 6.1)

Row | EC50 [pM] | Binder
28 | 74 | B1
29 | 94 | B2
30 | 65 | B4
31 | 54 | B5
32 | 52 | B6
33 | 50 | B7
34 | 59 | B8
35 | 77 | B9
36 | 77 | B13
37 | 80 | B14
38 | 1290 | B15

Molecular target: T3, human CD112R on GS-J2C/CD112R effector …
Assay: cell-based or functional assay

Row | EC50 (Blocking effects of the antibodies, reporter gene method) [µg/mL] | Binder
39 | 0.082 | B1
40 | 0.024 | B2
41 | 0.045 | B3
42 | 0.039 | B5
43 | 0.029 | B6
44 | 0.029 | B7
45 | 0.015 | B8
46 | 0.061 | B9
47 | 0.082 | B10
48 | 0.071 | B11
49 | 0.096 | B12
50 | 0.03 | B14
51 | 0.052 | B15
